Assay results: article PMC1420302

Molecular target: SF3b1-NT-His6 (human) (UniProt O75533)
UniProt O75533, sequence (O75533 1-511): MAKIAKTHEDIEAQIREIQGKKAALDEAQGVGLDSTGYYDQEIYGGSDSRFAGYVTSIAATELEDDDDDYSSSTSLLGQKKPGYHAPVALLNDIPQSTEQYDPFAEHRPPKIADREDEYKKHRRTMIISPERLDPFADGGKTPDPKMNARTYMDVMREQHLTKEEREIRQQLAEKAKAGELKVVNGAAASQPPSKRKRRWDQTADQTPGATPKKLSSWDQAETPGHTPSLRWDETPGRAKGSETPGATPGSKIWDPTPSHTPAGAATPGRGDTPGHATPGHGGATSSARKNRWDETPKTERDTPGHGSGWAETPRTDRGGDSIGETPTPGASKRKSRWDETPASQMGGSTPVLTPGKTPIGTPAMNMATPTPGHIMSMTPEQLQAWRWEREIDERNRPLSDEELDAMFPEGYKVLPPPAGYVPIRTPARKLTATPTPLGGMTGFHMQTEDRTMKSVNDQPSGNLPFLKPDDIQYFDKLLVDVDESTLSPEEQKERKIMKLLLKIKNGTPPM

approximate Km of phosphorylation, from velocities of phosphate incorporation at 0.7 and 7 μM substrate [µM] | Substance
2.75 | GST-DYRK1A-ΔC (from UniProt Q63470 1-763) (enzyme)
3.51 | cyclin E/CDK2 (from UniProt P24864 1-410; P24941 1-298) (complex)
